Measurements taken from PMC11969024 (2025).

B1: peptide HD2 (from tick evasin EVA4) / CCL11 (biotinylated, synthetic) (parent complex)
chain 1: EEDDYTAYAPLTCYFT
chain 2: not shown
B2: peptide HD2 (from tick evasin EVA4) / CCL22 (biotinylated, synthetic) (parent complex)
chain 1: EEDDYTAYAPLTCYFT
chain 2: GPYGANMEDSVCCRDYVRYRLPLRVVKHFYWTSDSCPRPGVVLLTFRDKEICADPRVPWVKMILNKLSQ

Variants of: B1

**Q.** How did the enrichment turn out when chain 1 T16Q was run?
**A.** 1.62 log2 (difference from the parental peptide)

**Q.** With chain 1 T16K as the variant, how does the enrichment read?
**A.** -0.03 log2 (difference from the parental peptide)

**Q.** chain 1 T16C was tested. Which enrichment did it give?
**A.** -0.0325 log2 (difference from the parental peptide)

**Q.** With chain 1 T16L as the variant, how does the enrichment read?
**A.** 0.412 log2 (difference from the parental peptide)

**Q.** Which enrichment does the source give for chain 1 Y5G here?
**A.** -5.68 log2 (difference from the parental peptide)

**Q.** Which enrichment does the source give for chain 1 Y5H here?
**A.** -6.32 log2 (difference from the parental peptide)

**Q.** How did the enrichment turn out when chain 1 Y5F was run?
**A.** 0.0717 log2 (difference from the parental peptide)

**Q.** With chain 1 Y5N as the variant, how does the enrichment read?
**A.** -5.96 log2 (difference from the parental peptide)

**Q.** Which enrichment does the source give for chain 1 Y5M here?
**A.** -1.54 log2 (difference from the parental peptide)

**Q.** For chain 1 Y8A, which enrichment is on record?
**A.** -4.4 log2 (difference from the parental peptide)

**Q.** Which enrichment does the source give for chain 1 T6N here?
**A.** 1.61 log2 (difference from the parental peptide)

**Q.** Which enrichment does the source give for chain 1 P10Y here?
**A.** -5.97 log2 (difference from the parental peptide)

**Q.** Which enrichment does the source give for chain 1 E1T here?
**A.** -0.645 log2 (difference from the parental peptide)

**Q.** How did the enrichment turn out when chain 1 D3I was run?
**A.** -3.65 log2 (difference from the parental peptide)

**Q.** With chain 1 D3M as the variant, how does the enrichment read?
**A.** -2.72 log2 (difference from the parental peptide)

**Q.** With chain 1 E2D as the variant, how does the enrichment read?
**A.** 1.39 log2 (difference from the parental peptide)

**Q.** chain 1 E2V was tested. Which enrichment did it give?
**A.** -1.61 log2 (difference from the parental peptide)

**Q.** For chain 1 E2H, which enrichment is on record?
**A.** -2.49 log2 (difference from the parental peptide)

**Q.** With chain 1 E2T as the variant, how does the enrichment read?
**A.** -2.27 log2 (difference from the parental peptide)

**Q.** chain 1 E2A was tested. Which enrichment did it give?
**A.** -0.825 log2 (difference from the parental peptide)

**Q.** With chain 1 F15N as the variant, how does the enrichment read?
**A.** -1.58 log2 (difference from the parental peptide)

**Q.** chain 1 F15K was tested. Which enrichment did it give?
**A.** -4.78 log2 (difference from the parental peptide)

**Q.** With chain 1 A9R as the variant, how does the enrichment read?
**A.** -1.6 log2 (difference from the parental peptide)

**Q.** For chain 1 A9V, which enrichment is on record?
**A.** -5.98 log2 (difference from the parental peptide)

**Q.** Which enrichment does the source give for chain 1 A9E here?
**A.** 0.893 log2 (difference from the parental peptide)

**Q.** chain 1 Y14D was tested. Which enrichment did it give?
**A.** -4.78 log2 (difference from the parental peptide)

**Q.** With chain 1 Y14F as the variant, how does the enrichment read?
**A.** 0.149 log2 (difference from the parental peptide)

**Q.** chain 1 Y14V was tested. Which enrichment did it give?
**A.** -3.71 log2 (difference from the parental peptide)

**Q.** For chain 1 Y14R, which enrichment is on record?
**A.** -8.35 log2 (difference from the parental peptide)

**Q.** With chain 1 C13S as the variant, how does the enrichment read?
**A.** -5.22 log2 (difference from the parental peptide)

**Q.** How did the enrichment turn out when chain 1 C13Q was run?
**A.** -8.37 log2 (difference from the parental peptide)

**Q.** How did the enrichment turn out when chain 1 C13M was run?
**A.** -6.39 log2 (difference from the parental peptide)

**Q.** With chain 1 A7M as the variant, how does the enrichment read?
**A.** 1.99 log2 (difference from the parental peptide)

**Q.** chain 1 A7E was tested. Which enrichment did it give?
**A.** 2.59 log2 (difference from the parental peptide)

**Q.** For chain 1 D4S, which enrichment is on record?
**A.** -3.54 log2 (difference from the parental peptide)

**Q.** Which enrichment does the source give for chain 1 D4K here?
**A.** -5.45 log2 (difference from the parental peptide)

**Q.** chain 1 D4T was tested. Which enrichment did it give?
**A.** -4.2 log2 (difference from the parental peptide)

**Q.** With chain 1 D4G as the variant, how does the enrichment read?
**A.** -4.8 log2 (difference from the parental peptide)

**Q.** With chain 1 D4Y as the variant, how does the enrichment read?
**A.** -1.9 log2 (difference from the parental peptide)

**Q.** chain 1 D4W was tested. Which enrichment did it give?
**A.** -3.16 log2 (difference from the parental peptide)

**Q.** How did the enrichment turn out when chain 1 L11N was run?
**A.** -4.38 log2 (difference from the parental peptide)

Variants of: B2

**Q.** chain 1 T12L was tested. Which enrichment did it give?
**A.** 0.0229 log2 (difference from the parental peptide)

**Q.** Which enrichment does the source give for chain 1 T12C here?
**A.** -1.01 log2 (difference from the parental peptide)

**Q.** chain 1 T12G was tested. Which enrichment did it give?
**A.** -10.3 log2 (difference from the parental peptide)

**Q.** For chain 1 T12D, which enrichment is on record?
**A.** -6.65 log2 (difference from the parental peptide)

**Q.** chain 1 D4F was tested. Which enrichment did it give?
**A.** -7.18 log2 (difference from the parental peptide)

**Q.** How did the enrichment turn out when chain 1 D4N was run?
**A.** -4.06 log2 (difference from the parental peptide)

**Q.** With chain 1 D4A as the variant, how does the enrichment read?
**A.** -8.08 log2 (difference from the parental peptide)

**Q.** For chain 1 D3A, which enrichment is on record?
**A.** -3.86 log2 (difference from the parental peptide)

**Q.** For chain 1 D3G, which enrichment is on record?
**A.** -4.28 log2 (difference from the parental peptide)

**Q.** Which enrichment does the source give for chain 1 D3H here?
**A.** -5.38 log2 (difference from the parental peptide)

**Q.** For chain 1 Y8A, which enrichment is on record?
**A.** -7.77 log2 (difference from the parental peptide)

**Q.** How did the enrichment turn out when chain 1 Y8L was run?
**A.** -7.77 log2 (difference from the parental peptide)

**Q.** chain 1 Y8D was tested. Which enrichment did it give?
**A.** -7.54 log2 (difference from the parental peptide)

**Q.** For chain 1 A7I, which enrichment is on record?
**A.** -3 log2 (difference from the parental peptide)

**Q.** chain 1 A7E was tested. Which enrichment did it give?
**A.** 1.56 log2 (difference from the parental peptide)

**Q.** How did the enrichment turn out when chain 1 A7T was run?
**A.** -1.44 log2 (difference from the parental peptide)

**Q.** chain 1 T6L was tested. Which enrichment did it give?
**A.** -2.3 log2 (difference from the parental peptide)

**Q.** chain 1 T16W was tested. Which enrichment did it give?
**A.** -0.731 log2 (difference from the parental peptide)

**Q.** chain 1 T16L was tested. Which enrichment did it give?
**A.** 0.694 log2 (difference from the parental peptide)

**Q.** Which enrichment does the source give for chain 1 T16K here?
**A.** 2.2 log2 (difference from the parental peptide)

**Q.** How did the enrichment turn out when chain 1 T16I was run?
**A.** 0.113 log2 (difference from the parental peptide)

**Q.** Which enrichment does the source give for chain 1 Y5D here?
**A.** -5.05 log2 (difference from the parental peptide)

**Q.** With chain 1 E2V as the variant, how does the enrichment read?
**A.** -2.63 log2 (difference from the parental peptide)

**Q.** Which enrichment does the source give for chain 1 E2L here?
**A.** -2.82 log2 (difference from the parental peptide)

**Q.** With chain 1 E2N as the variant, how does the enrichment read?
**A.** -3.61 log2 (difference from the parental peptide)

**Q.** How did the enrichment turn out when chain 1 E2S was run?
**A.** -3.12 log2 (difference from the parental peptide)

**Q.** Which enrichment does the source give for chain 1 Y14D here?
**A.** -4.53 log2 (difference from the parental peptide)

**Q.** How did the enrichment turn out when chain 1 C13M was run?
**A.** -3.12 log2 (difference from the parental peptide)

**Q.** How did the enrichment turn out when chain 1 C13A was run?
**A.** -6.82 log2 (difference from the parental peptide)

**Q.** Which enrichment does the source give for chain 1 C13F here?
**A.** -6.63 log2 (difference from the parental peptide)

**Q.** How did the enrichment turn out when chain 1 C13S was run?
**A.** -3.73 log2 (difference from the parental peptide)

**Q.** For chain 1 A9S, which enrichment is on record?
**A.** -2.79 log2 (difference from the parental peptide)

**Q.** For chain 1 A9N, which enrichment is on record?
**A.** -4.75 log2 (difference from the parental peptide)

**Q.** How did the enrichment turn out when chain 1 A9W was run?
**A.** -3.76 log2 (difference from the parental peptide)
